For assay [1], the target named is T1, catalytic domain of human MT1-MMP (residues 119-290) (Homo sapiens, UniProt P50281).
T1 construct: membrane type 1-matrix metalloproteinase (MT1-MMP), human, catalytic domain, residues 119-290, expressed from pET3a; also called CAT-MT1-MMP; catalytic domain of membrane type 1-matrix metalloproteinase
The assay can be described thus: ELISA; monoclonal phage ELISA; MaxiSorp plates coated with CAT-MT1-MMP, MT2-MMP or MT3-MMP at 4°C overnight (BSA as negative control); culture supernatants with phages applied; anti-M13-HRP, OPD, OD490. Conditions: one partner purified.

Assay [2] addresses T1, catalytic domain of human MT1-MMP …. The assay can be described thus: ELISA; MaxiSorp plates coated overnight at 4°C with CAT-MT1-MMP; blocked with 3% BSA in PBS; serial dilutions of nanobodies, 90 min at 37°C; HRP anti-HA mAb, TMB, OD450. Conditions: both partners purified. (In general: ELISA stands for enzyme-linked immunosorbent assay.)
Assay [3] addresses extracellular domain (ed) of MT1-MMP, Ala21-Ser538, Arg108Pro (Homo sapiens (species ; …, UniProt P50281, Arg108Pro). The assay can be described thus: SPR; edMT1-MMP amine-coupled on a CM5 chip (104 RU); nanobody 16-250 nM, 3 min at 30 μl/min, 30 min dissociation; HBS-EP+ buffer; 25°C; Biacore X100; 1:1 binding model. Conditions: both partners purified. (In general: In SPR one partner is held on a chip, and binding of the other changes the refractive index at the surface.)

B1: 3TPA14 displayed on phage (monoclonal phage clone) (VHH)
VHH: QVQLQESGGGLVQAGGSLRLSCAASGLILSGFSTGWFRQAPGKEREFLSTISSAGTRTYYADSVKGRFTISRDNAKNTVYLQMNRLKPEDAGVYYCTGYGRRSMPALRPEEWTYWGQGTQVTVSS
notes: also called 3TPA14 phage clone; source: E. coli TG1 with phagemid, VCS-M13 helper phage, culture supernatant
On to B1, for which the binding result in assay [1] is given as “binds”.

B2: [^68Ga]Ga-NOTA-3TPA14 (VHH)
VHH: B1 VHH
notes: also called radiolabeled-NOTA conjugate of 3TPA14; source: E. coli WK6 periplasm, purified, conjugated with p-SCN-Bn-NOTA and labelled with 68Ga, PD-10 purified
Regarding B2, in assay [2], the binding result is given as “binds”.

B3: nanobody 3TPA14 (CDR3 group 1), purified (VHH)
VHH: B1 VHH
notes: Llama-derived VHH selected by phage display against CAT-MT1-MMP; also called Nb 3TPA14; source: E. coli WK6 periplasm (pMECS), purified (IMAC HisTrap, SEC Superdex 75)
One may read the Kd as the constant that tells how readily two partners part at equilibrium. As to B3, binding in assay [3] was put at a Kd of 15.8 ± 0.3 nM. Moreover, in assay [2], the binding result is listed as “binds”.

B4: 3CMP75 displayed on phage (monoclonal phage clone) (VHH)
VHH: QVQLQESGGGLVQAGGSLRLSCTASGRTFSSNAMAWFRLAPGKEREFVAAISGNGGSTTYADSVKGRVTISRDNAKNTVYLHMSSLKPEDTAVYYCNQRNFGRDGTLGDYWGNGTQVTVSS
notes: also called 3CMP75 phage clone; source: E. coli TG1 with phagemid, VCS-M13 helper phage, culture supernatant
On to B4, for which the binding result in assay [1] was “binds”.

B5: [^68Ga]Ga-NOTA-3CMP75 (VHH)
VHH: B4 VHH
notes: also called radiolabeled-NOTA conjugate of 3CMP75; source: E. coli WK6 periplasm, purified, conjugated with p-SCN-Bn-NOTA and labelled with 68Ga, PD-10 purified
With B5, in assay [2], the binding result is reported as “binds”.

B6: nanobody 3CMP75 (CDR3 group 6), purified (VHH)
VHH: B4 VHH
notes: Llama-derived VHH selected by phage display against CAT-MT1-MMP; also called Nb 3CMP75; 2CMP75 (as printed in two methods paragraphs); source: E. coli WK6 periplasm (pMECS), purified (IMAC HisTrap, SEC Superdex 75)
As for B6, in assay [3], binding was characterised by a dissociation constant (Kd) of 35 ± 3 nM. The binding result in assay [2] is “binds”.

These data come from article PMC9729729, “Development of anti-membrane type 1-matrix metalloproteinase nanobodies as immunoPET probes for triple negative breast cancer imaging” (Frontiers in Medicine, 2022).
